Laboratory results taken from patent US20250341522A1, “Treatment Strategies for Pancreatic Cancer Using Recombinant Acid Sphingomyelinase” (University of Cincinnati, priority 2024, published 2025).
“And” between values parts separate entries of the source, which are not always exact repeats. Equal values may be shown once. Read-outs that look alike come from different tables or passages of the source.

Legend:
KPC tumor cells = assay: Survival after i.p. injection of KPC tumor cells (Example 11); format: in vivo, mice; settings: 50 000 KPC tumor cells i.p., rec. ASM i.p. twice daily for 2 weeks, starting 2 days after tumor injection; for Survival of individual subjects: anti-PD1 every 2nd day i.p. 250 μg/25 g where combined
Method: Group 1: 50 000 KPC tumor cells were i.p. injected and tumor development was determined. For this group, the subjects survived, respectively, for 27, 28, 28, 29, 30, and 31 days.
Group 2: Survival time was collected for subjects upon application of recombinant acid sphingomyelinase (i.p., twice daily, for 2 weeks, starting 2 days after tumor injection). For this group, the subjects survived, respectively, for 48, 55, 57, 60, 62, 65 and 70 days. The acid sphingomyelinase was injected for a longer time and i.p. in these experiments than in FIG. 11.
Group 3: Survival time was collected for subjects upon application of recombinant acid sphingomyelinase (i.p., twice daily, for 2 weeks, starting 2 days after tumor injection)+application of anti-PD1 antibodies (every 2nd day i.p., 250 μg/25 g). For this group, the subjects survived, respectively, for 75, 80, 85, 87, 90, 93 and 96 days. The half-life time of acid sphingomyelinase is rather short in mice (2 hrs, but much longer in humans with 2 weeks). Thus, the i.p. injection are not very sufficient and must be replaced by continuous infusion, which may allow complete elimination of the tumors.

PD1 on CD3 lymphocytes = assay: PD1 surface expression on CD3 lymphocytes by flow cytometry in KPC tumor mice (Example 12); format: in vivo; settings: wildtype mice, KPC-PDAC (50 000 cells i.p.), 21 days; rec. ASM for 2 days with 4 i.p. injections/day; individual mice
Method: FIG. 12 is a graph showing the PDI expression on lymphocytes of tumor mice upon treatment with recombinant acid sphingomyelinase or solvent.
The PD1 expression on lymphocytes with/without treatment with recombinant acid sphingomyelinase was determined. The surface expression of PD1 on CD3 lymphocytes was determined by flow cytometry upon staining with FITC-anti-PD1 and APC-anti-CD3 antibodies, expressed as mean fluorescence in a.u. of PD1 in the CD3-positive cell population. Mice were i.p. injected with 50 000 KPC tumor cells, left for 21 days untreated or treated with recombinant acid sphingomyelinase for 2 days with 4 i.p. injections/day.

KPC cells = assay: Tumor growth in wt mice after peritoneal injection of KPC cells, gemcitabine plus recombinant ASM (Example 10, FIG. 11); format: in vivo; settings: 0.75 mg/kg i.v. twice daily, 2 treatment cycles of 4 days each, in combination with gemcitabine; KPC tumor-injected wt mice
Method: FIG. 11 is a graph showing the results of wt mice that were treated with gemcitabine alone, gemcitabine plus recombinant ASM, or vehicle control after peritoneal injection of KPC cells. Recombinant ASM was administered twice daily at 0.75 mg/kg i.v. for two treatment cycles of 4 days each.
Since PDAC growth in ASM-tr mice. we determined the therapeutic potential of exogenous administration of recombinant ASM. We administered 0.75 mg/kg recombinant ASM i.v. twice daily to tumor-injected mice for 2 treatment cycles of 4 days each in combination with the standard treatment, i.e. gemcitabine. […] However, because the half-life of recombinant ASM is only 2 h, these studies must be repeated with continuous infusion of ASM.
Wt mice were treated with gemcitabine alone (“Group 1”), gemcitabine plus recombinant ASM (“Group 2”) or vehicle control after peritoneal injection of KPC cells (“Group 3”). Recombinant ASM was administered twice daily 0.75 mg/kg i.v. for two treatment cycles of 4 days each.

[1] = cited from earlier work
[2] = in humans; cited from earlier work

B1: recombinant ASM: recombinant acid sphingomyelinase (EC 3.1.4.12, SMPD1), a lysosomal hydrolase glycoprotein degrading sphingomyelin to phosphorylcholine and ceramide (protein, UniProt P17405 47-631, looked up)
Sphingomyelin …: LALSDSRVLWAPAEAHPLSPQGHPARLHRIVPRLRDVFGWGNLTCPICKGLFTAINLGLKKEPNVARVGSVAIKLCNLLKIAPPAVCQSIVHLFEDDMVEVWRRSVLSPSEACGLLLGSTCGHWDIFSSWNISLPTVPKPPPKPPSPPAPGAPVSRILFLTDLHWDHDYLEGTDPDCADPLCCRRGSGLPPASRPGAGYWGEYSKCDLPLRTLESLLSGLGPAGPFDMVYWTGDIPAHDVWHQTRQDQLRALTTVTALVRKFLGPVPVYPAVGNHESTPVNSFPPPFIEGNHSSRWLYEAMAKAWEPWLPAEALRTLRIGGFYALSPYPGLRLISLNMNFCSRENFWLLINSTDPAGQLQWLVGELQAAEDRGDKVHIIGHIPPGHCLKSWSWNYYRIVARYENTLAAQFFGHTHVDEFEVFYDEETLSRPLAVAFLAPSATTYIGLNPGYRVYQIDGNYSGSSHVVLDHETYILNLTQANIPGAIPHWQLLYRARETYGLPNTLPTAWHNLVYRMRGDMQLFQTFWFLYHKGHPPSEPCGTPCRLATLCAQLSARADSPALCRHLMPDGSLPEAQSLWPRPLFC
KPC tumor cells
  Survival of individual subjects: 48 days and 55 days and 57 days and 60 days and 62 days and 65 days and 70 days
KPC tumor cells; listed as Rec. ASM alone
  Survival of individual subjects: 48 days and 55 days and 57 days and 60 days and 62 days and 65 days and 70 days
KPC tumor cells; anti-PD1 every 2nd day i.p. where combined
  Avg. Survival: 59.6 days
PD1 on CD3 lymphocytes
  Surface expression of PD1 on CD3 lymphocytes, mean fluorescence of PD1 in the CD3-positive cell population: 138 a.u. and 129 a.u. and 125 a.u. and 118 a.u. and 131 a.u. and 115 a.u. and 141 a.u.
KPC cells
  tumor growth: delayed tumor growth
[1]; in mice
  half-life time of acid sphingomyelinase: 2 h
[1]; stated in mouse study of Example 10
  half-life of recombinant ASM: 2 h
[2]
  half-life time of acid sphingomyelinase: 2 weeks
